Literature values as cited in publication PMC5776729.

What was measured:
[1] = molecular target: laminin 411 (Homo sapiens) (UniProt Q16363)
[2] = molecular target: laminin 511 (Homo sapiens) (UniProt O15230)
[3] = molecular target: laminin 111 (Mus musculus) (UniProt P19137)
[4] = molecular target: laminin 111 (Homo sapiens) (UniProt P25391)

Sequence of UniProt Q16363 (Q16363 25-1823, chain 1 of 3): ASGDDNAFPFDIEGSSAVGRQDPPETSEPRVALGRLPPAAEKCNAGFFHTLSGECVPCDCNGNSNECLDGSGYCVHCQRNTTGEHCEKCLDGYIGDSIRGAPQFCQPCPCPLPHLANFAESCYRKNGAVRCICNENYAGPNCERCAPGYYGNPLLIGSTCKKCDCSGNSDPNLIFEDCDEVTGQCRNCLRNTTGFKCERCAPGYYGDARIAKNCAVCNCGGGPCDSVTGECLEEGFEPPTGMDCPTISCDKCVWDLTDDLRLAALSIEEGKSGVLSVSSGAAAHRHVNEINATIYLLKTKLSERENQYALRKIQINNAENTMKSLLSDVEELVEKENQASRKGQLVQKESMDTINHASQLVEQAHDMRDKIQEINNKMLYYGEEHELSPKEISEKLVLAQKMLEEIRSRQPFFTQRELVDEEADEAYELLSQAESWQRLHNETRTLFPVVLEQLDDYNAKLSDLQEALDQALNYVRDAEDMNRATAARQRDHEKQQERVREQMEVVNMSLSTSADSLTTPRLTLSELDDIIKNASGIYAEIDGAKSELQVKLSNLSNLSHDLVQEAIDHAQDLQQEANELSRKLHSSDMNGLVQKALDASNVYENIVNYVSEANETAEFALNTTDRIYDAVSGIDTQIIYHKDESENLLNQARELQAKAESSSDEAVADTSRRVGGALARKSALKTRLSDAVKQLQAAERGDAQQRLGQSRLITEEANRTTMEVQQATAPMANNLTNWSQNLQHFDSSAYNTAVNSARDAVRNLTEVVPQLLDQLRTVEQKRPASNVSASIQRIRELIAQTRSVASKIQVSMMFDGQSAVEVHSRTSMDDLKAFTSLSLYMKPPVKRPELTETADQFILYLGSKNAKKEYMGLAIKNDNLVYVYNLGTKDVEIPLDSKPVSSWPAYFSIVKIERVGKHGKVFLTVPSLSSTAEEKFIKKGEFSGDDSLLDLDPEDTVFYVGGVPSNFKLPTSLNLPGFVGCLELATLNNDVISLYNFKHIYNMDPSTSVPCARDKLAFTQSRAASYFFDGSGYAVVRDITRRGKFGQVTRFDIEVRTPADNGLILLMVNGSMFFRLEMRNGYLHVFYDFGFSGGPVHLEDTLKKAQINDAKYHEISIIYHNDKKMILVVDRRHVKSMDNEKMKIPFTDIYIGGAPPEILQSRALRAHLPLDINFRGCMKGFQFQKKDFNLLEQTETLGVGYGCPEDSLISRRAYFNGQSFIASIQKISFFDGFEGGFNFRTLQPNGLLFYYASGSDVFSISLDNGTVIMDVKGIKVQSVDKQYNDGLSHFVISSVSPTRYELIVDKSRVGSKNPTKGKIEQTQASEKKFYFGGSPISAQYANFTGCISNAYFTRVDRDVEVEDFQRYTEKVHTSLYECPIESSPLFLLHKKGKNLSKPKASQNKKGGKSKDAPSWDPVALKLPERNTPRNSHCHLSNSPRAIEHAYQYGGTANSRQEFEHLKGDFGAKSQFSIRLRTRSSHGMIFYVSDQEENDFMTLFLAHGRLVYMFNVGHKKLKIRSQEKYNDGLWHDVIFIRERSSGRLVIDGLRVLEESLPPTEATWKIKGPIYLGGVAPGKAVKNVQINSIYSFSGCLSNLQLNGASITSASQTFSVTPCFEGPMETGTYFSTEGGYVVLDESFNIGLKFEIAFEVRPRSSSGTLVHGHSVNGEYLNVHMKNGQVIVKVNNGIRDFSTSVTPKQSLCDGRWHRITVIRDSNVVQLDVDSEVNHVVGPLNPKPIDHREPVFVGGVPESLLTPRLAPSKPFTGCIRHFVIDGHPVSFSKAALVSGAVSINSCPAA
Sequence of UniProt Q16363 (P07942 22-1786, chain 2 of 3, further chain): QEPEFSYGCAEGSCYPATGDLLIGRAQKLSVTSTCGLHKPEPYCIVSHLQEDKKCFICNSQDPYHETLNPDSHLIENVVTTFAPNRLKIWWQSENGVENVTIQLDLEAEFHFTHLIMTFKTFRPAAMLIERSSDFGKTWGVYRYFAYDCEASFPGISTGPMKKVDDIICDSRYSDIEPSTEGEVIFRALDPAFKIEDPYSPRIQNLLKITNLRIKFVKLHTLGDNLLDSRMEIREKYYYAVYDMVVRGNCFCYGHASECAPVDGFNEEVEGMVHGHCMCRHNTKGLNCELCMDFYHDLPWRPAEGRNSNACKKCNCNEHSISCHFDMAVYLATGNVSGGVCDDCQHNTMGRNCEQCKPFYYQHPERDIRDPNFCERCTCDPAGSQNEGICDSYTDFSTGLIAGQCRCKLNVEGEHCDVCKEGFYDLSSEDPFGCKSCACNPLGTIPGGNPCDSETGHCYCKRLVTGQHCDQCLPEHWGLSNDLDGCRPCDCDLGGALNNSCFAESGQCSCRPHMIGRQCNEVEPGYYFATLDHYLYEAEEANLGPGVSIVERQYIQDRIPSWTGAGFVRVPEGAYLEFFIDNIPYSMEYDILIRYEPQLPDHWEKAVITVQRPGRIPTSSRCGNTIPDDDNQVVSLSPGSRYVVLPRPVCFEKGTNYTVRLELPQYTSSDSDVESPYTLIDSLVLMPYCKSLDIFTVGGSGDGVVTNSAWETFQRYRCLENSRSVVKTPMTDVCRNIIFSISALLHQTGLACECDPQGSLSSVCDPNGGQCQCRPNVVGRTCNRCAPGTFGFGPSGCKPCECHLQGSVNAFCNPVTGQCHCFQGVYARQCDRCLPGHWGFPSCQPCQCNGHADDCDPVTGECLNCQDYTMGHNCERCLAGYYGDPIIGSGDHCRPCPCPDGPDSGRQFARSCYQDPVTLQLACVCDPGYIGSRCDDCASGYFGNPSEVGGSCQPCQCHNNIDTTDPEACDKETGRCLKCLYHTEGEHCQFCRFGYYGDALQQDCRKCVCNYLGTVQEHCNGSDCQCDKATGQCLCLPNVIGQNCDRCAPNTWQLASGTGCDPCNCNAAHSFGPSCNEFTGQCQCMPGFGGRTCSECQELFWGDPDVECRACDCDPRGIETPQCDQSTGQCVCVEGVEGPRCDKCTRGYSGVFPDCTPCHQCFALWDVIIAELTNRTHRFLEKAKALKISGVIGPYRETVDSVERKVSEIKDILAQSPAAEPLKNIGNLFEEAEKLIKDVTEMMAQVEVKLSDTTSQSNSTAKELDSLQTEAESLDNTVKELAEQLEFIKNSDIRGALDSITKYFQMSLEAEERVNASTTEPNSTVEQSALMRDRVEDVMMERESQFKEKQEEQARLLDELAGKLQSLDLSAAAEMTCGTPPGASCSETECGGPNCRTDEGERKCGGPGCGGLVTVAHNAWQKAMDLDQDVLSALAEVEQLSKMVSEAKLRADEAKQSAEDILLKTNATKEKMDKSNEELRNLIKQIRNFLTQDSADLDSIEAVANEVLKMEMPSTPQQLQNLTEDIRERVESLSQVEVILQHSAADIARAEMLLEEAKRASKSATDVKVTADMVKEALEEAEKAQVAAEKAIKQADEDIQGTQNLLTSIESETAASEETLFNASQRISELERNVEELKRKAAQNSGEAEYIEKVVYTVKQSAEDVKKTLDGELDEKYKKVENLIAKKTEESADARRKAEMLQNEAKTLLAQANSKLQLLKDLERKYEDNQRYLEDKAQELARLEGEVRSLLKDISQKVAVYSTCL
Sequence of UniProt Q16363 (P11047 34-1609, chain 3 of 3, further chain): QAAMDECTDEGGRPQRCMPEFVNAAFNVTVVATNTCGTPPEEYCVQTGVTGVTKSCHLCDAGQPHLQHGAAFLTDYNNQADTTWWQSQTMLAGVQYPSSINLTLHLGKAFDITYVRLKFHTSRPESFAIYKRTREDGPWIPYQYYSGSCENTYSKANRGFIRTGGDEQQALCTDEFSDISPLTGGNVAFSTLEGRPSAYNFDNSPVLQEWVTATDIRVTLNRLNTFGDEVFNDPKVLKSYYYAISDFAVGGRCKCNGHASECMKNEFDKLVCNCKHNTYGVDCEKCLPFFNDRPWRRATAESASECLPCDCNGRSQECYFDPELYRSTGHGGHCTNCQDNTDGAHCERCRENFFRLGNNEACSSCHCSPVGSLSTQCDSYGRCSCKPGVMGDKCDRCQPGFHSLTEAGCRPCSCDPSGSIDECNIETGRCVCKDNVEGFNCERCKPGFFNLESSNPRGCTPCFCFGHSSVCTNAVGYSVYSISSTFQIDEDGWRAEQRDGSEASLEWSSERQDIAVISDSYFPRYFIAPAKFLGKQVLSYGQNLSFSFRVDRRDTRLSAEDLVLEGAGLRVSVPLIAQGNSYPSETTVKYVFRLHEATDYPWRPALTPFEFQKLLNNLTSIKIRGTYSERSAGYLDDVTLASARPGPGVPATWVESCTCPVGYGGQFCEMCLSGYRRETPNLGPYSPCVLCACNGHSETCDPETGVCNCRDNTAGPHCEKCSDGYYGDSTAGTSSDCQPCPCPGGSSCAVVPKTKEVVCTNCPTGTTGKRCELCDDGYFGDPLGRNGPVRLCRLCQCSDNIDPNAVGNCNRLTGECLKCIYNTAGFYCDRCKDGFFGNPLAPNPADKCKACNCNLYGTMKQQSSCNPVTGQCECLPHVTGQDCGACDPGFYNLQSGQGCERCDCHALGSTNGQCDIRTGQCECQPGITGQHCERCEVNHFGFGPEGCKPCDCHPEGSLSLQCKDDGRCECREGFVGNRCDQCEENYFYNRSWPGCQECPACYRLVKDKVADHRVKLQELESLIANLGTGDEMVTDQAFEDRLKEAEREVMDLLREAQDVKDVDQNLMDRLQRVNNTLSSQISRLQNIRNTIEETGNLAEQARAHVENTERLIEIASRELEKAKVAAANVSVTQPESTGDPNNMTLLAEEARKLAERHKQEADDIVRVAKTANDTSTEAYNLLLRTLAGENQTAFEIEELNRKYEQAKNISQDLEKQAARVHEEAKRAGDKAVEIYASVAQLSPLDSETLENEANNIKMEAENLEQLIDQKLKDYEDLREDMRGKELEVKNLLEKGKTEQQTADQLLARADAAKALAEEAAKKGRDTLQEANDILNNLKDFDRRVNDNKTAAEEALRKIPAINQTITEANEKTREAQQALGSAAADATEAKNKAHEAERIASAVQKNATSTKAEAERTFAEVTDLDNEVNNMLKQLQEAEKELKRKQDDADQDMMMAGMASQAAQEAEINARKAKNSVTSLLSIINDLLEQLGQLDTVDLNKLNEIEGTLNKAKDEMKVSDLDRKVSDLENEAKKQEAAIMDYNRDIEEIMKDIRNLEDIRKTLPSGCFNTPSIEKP

Kd [1]: 0.0092 µM | Kd [2]: 0.0083 µM | Kd [3]: 0.0188 µM | Kd [4]: 0.0111 µM
Substance: Factor XI (from UniProt P03951)
